For 167 variants, abundance fitness results are on record in the Human Domainome abundance scans (Beltran et al. 2025).

± gives the uncertainty stated by the source.

B1: Chromodomain-helicase-DNA-binding protein 5, residues 338 to 390; numbered along this chain, Q8TDI0 (parent)
chain: YETDHQDYCEVCQQGGEIILCDTCPRAYHLVCLDPELEKAPEGKWSCPHCEKE

The variants in this data set derive from B1. As to the kind of experiment: abundance fitness (aPCA) (normalised: wild type 0, dead -1); higher = more abundant; growth selection in yeast, the domain comes from the species named. To be noted: Homo sapiens.
Regarding H29N, the abundance fitness was -0.766 ± 0.32.
With A27D the figure was -0.258 ± 0.17; with A27Y, -0.159 ± 0.24; with A27W, -0.186 ± 0.17.
In the case of A27L it was -0.204 ± 0.13; in that of A27V, -0.211 ± 0.12; in that of E17K, 0.105 ± 0.16.
As to E17P, the abundance fitness is -0.445 ± 0.17.
As for E17I, the abundance fitness amounted to 0.227 ± 0.21.
In the case of E17N it was 0.2 ± 0.2.
In the case of E17T it was -0.109 ± 0.19.
With E17V, the abundance fitness is -0.358 ± 0.1.
In the case of E17C it was -0.105 ± 0.13.
With E53D the figure was 0.016 ± 0.3; with E53S, -0.548 ± 0.25.
With E53C the figure was 0.222 ± 0.23; with E53K, -0.173 ± 0.4.
For the variant E53G, the abundance fitness was determined as 0.086 ± 0.13.
For the variant E42F, the abundance fitness was -0.413 ± 0.18.
With E42T the figure was 0.014 ± 0.13; with E42A, -0.113 ± 0.11.
With E42G the figure was -0.117 ± 0.1.
With E42K the figure was -0.563 ± 0.18.
As to E42Y, the abundance fitness is -0.076 ± 0.19.
Take E42M: the abundance fitness turned out to be 0.138 ± 0.16.
For T3R, the abundance fitness was found to be 0.119 ± 0.094.
Turning to T3C, the abundance fitness was -0.267 ± 0.18.
For T3S, the abundance fitness was found to be 0.077 ± 0.12.
For the variant T3I, the abundance fitness came out at 0.465 ± 0.22.
For T3N, the abundance fitness is -0.37 ± 0.23.
With Q6G the figure was -0.313 ± 0.12; with Q6H, -0.286 ± 0.18; with Q6F, -0.234 ± 0.13.
Regarding Q6D, the abundance fitness is -0.199 ± 0.23.
In the case of Q6S, the abundance fitness is -0.047 ± 0.12.
With E10F the figure was 0.256 ± 0.17; with E10Y, 0.209 ± 0.14.
With E10T, the abundance fitness is -0.004 ± 0.14.
With Y8D the figure was -0.199 ± 0.25; with Y8V, 0.054 ± 0.1; with Y8S, 0.014 ± 0.11.
With Y8Q the figure was 0.437 ± 0.15.
In the case of Y8I, the abundance fitness amounted to 0.241 ± 0.16.
In the case of Y8N it was 0.227 ± 0.18; in that of P35E, 0.001 ± 0.12; in that of P35M, 0.121 ± 0.13.
In the case of P35N, the abundance fitness was -0.211 ± 0.23.
With P35W the figure was -0.428 ± 0.19; with P35F, -0.915 ± 0.33; with P35H, -0.524 ± 0.34.
Take P35S: the abundance fitness was -0.057 ± 0.11.
In the case of P35L it was -0.078 ± 0.097.
In the case of S46P it was -0.109 ± 0.13; in that of S46C, 0.073 ± 0.2; in that of S46F, -0.035 ± 0.17.
On to S46D, for which the abundance fitness was -0.197 ± 0.14.
Regarding S46Q, the abundance fitness was -0.331 ± 0.15.
With S46L the figure was 0.051 ± 0.12; with S46G, -0.005 ± 0.1.
In the case of S46E it was -0.023 ± 0.12; in that of S46M, -0.266 ± 0.15; in that of K39W, -0.242 ± 0.18.
With K39T the figure was -0.029 ± 0.18.
On to K39F, for which the abundance fitness was -0.315 ± 0.23.
With K39D the figure was -0.208 ± 0.15; with K39A, -0.081 ± 0.11.
In the case of L30V it was -0.135 ± 0.093; in that of L30A, 0.094 ± 0.1.
In the case of L30W it was -0.036 ± 0.13; in that of L30E, 0.059 ± 0.12; in that of L30M, 0.095 ± 0.087.
Consider V31I, for which the abundance fitness was -0.205 ± 0.13.
As for V31C, the abundance fitness was -0.325 ± 0.2.
In the case of V31G it was 0.069 ± 0.1.
With V31D the figure was -0.157 ± 0.17.
With V31E the figure was 0.257 ± 0.12.
Turning to V31Q, the abundance fitness is -0.315 ± 0.19.
With V31L the figure was -0.104 ± 0.097.
With C50M the figure was -1.01 ± 0.34; with C50T, -0.409 ± 0.19; with C50P, -0.499 ± 0.18.
In the case of C50S it was -0.416 ± 0.12; in that of C50Y, -0.507 ± 0.17.
As to C50K, the abundance fitness was -0.405 ± 0.19.
In the case of C50N it was -0.498 ± 0.2.
In the case of C50F it was -0.654 ± 0.23; in that of C50D, -0.626 ± 0.24.
For E2A, the abundance fitness was -0.071 ± 0.13.
With E2V, the abundance fitness is -0.484 ± 0.12.
In the case of E2R it was 0.267 ± 0.12; in that of E2H, 0.022 ± 0.36; in that of E2P, -0.175 ± 0.22.
With E2K the figure was 0.529 ± 0.2; with E2F, 0.018 ± 0.26; with E2T, 0.488 ± 0.21.
In the case of E2C it was 0.423 ± 0.28; in that of Q14V, -0.107 ± 0.12.
As for Q14F, the abundance fitness was -0.295 ± 0.14.
As for Q14L, the abundance fitness was -0.011 ± 0.11.
In the case of Q14T it was 0.193 ± 0.14; in that of H5I, 0.079 ± 0.17.
In the case of H5N it was -0.072 ± 0.17.
Turning to H5G, the abundance fitness was determined as 0.185 ± 0.084.
In the case of E36V it was 0.205 ± 0.12; in that of E36Q, 0.046 ± 0.13; in that of E36D, 0.139 ± 0.16.
With E36M the figure was 0.069 ± 0.16; with E36G, 0.014 ± 0.11; with E36A, -0.033 ± 0.12.
For the variant E36H, the abundance fitness is -0.18 ± 0.14.
In the case of E36T it was -0.042 ± 0.15.
With E36C the figure was -0.067 ± 0.17; with E36K, 0.093 ± 0.17; with E36I, -0.057 ± 0.24.
In the case of E36L it was -0.093 ± 0.11; in that of P41M, -0.124 ± 0.17.
As for P41Q, the abundance fitness was -0.568 ± 0.2.
In the case of P41R it was -0.075 ± 0.098; in that of P41W, -0.323 ± 0.15.
Take P41T: the abundance fitness is -0.17 ± 0.2.
With P41F the figure was -0.164 ± 0.26; with H49M, -0.234 ± 0.42.
In the case of H49P it was -0.024 ± 0.26; in that of H49L, -0.176 ± 0.2.
On to H49W, for which the abundance fitness was -0.69 ± 0.3.
With H49K the figure was 0.041 ± 0.41.
In the case of H49N it was 0.104 ± 0.32.
With K44N the figure was -0.237 ± 0.2; with K44D, 0.216 ± 0.16; with K44I, -0.32 ± 0.21.
As for K44C, the abundance fitness is -0.051 ± 0.13.
With K44L the figure was -0.009 ± 0.12; with K44F, -0.259 ± 0.17; with K44S, -0.125 ± 0.12.
For the variant K44A, the abundance fitness was -0.255 ± 0.15.
With L33G the figure was -0.389 ± 0.12; with L33M, 0.185 ± 0.12; with L33W, 0.032 ± 0.13.
On to L33R, for which the abundance fitness is -0.281 ± 0.11.
Turning to L33T, the abundance fitness is 0.163 ± 0.13.
As to L33Y, the abundance fitness came to 0.064 ± 0.17.
Take L33H: the abundance fitness came out at 0.046 ± 0.22.
With L33I the figure was -0.235 ± 0.21; with L33A, -0.085 ± 0.11.
With L33P the figure was -0.223 ± 0.15; with L20V, 0.051 ± 0.1.
With L20G the figure was 0.297 ± 0.087; with L20I, -0.095 ± 0.15.
In the case of L20T, the abundance fitness was 0.258 ± 0.14.
With I19A the figure was 0.109 ± 0.1; with I19H, 0.128 ± 0.19; with I19V, -0.085 ± 0.11.
With I19G the figure was -0.177 ± 0.094.
On to I19S, for which the abundance fitness is -0.104 ± 0.12.
For I19D, the abundance fitness is -0.023 ± 0.15.
With I19Y, the abundance fitness is -0.226 ± 0.2.
A40I: the abundance fitness is 0.131 ± 0.16.
Consider A40N, for which the abundance fitness came out at 0.187 ± 0.16.
In the case of A40K it was -0.218 ± 0.19; in that of A40D, -0.243 ± 0.19.
On to D7E, for which the abundance fitness is -0.255 ± 0.16.
With D7G the figure was -0.252 ± 0.12; with D7W, -0.613 ± 0.18; with D7H, -0.296 ± 0.36.
D7F: the abundance fitness is -0.725 ± 0.4.
With D7T, the abundance fitness was determined as 0.112 ± 0.15.
With D7R the figure was -0.154 ± 0.14.
